Data reported in US8846873B2, “Antibodies directed to GPNMB and uses thereof” (Celldex Therapeutics, Inc., priority 2004, dated 2014).

What was measured:
[1] = system: SK-MEL-2 melanoma xenografts; assay: Human SK-MEL-2 melanoma xenograft in athymic mice; type: in vivo; details: CR011-ONC-1, CR011-vcMMAE 5 mg/kg/treatment i.v. q4d x4, components at doses identical to those in the immunoconjugate
Description: Test Animals: Five- to 6-week old athymic mice (CD-1 nu/nu females), used for human tumor xenografts, were obtained from Harlan Laboratories (Indianapolis, Ind.). Animals were housed in specific pathogen-free conditions, according to the guidelines of the Association for Assessment and Accreditation of Laboratory Animal Care International (AAALAC International). Test animals were provided pelleted food and water ad libitum and kept in a room with conditioned ventilation (HVAC), temperature (22°±2° C.), relative humidity (55%±15%), and photoperiod (12 hr). All studies were carried out with approved institutional animal care and use protocols.
Human Melanoma Xenograft Models. The tumor inhibitory activity of the CR011-MMAE immunoconjugate was measured in an anti-tumor xenograft model using athymic mice, according to published methods (see Geran et al., Cancer Chemother. Rep. 3:1-104 (1972)). […] When tumors became established (10-20 days), the animals were pair-matched into groups (n=6 mice/group), and treatment was administered by intravenous injection (tail vein). […]
The effects of treatment were monitored by repetitive tumor measurements across 2 diameters with Vernier calipers; tumor size (in mg) was calculated using a standard formula, (W^2×L)/2, assuming a specific gravity of 1.0. Tumor size and body weights were assessed twice weekly. […]

U-118-MG = assay: Flow cytometry (FACS) of CR011 surface staining; type: binding, human
Description: (§1) Flow Cytometry: Quantitative analysis of CG56972 expression on the surface of cell lines was determined by flow cytometry (FACS). […] Cells were fixed in 1% paraformaldehyde/PBS and examined on a Becton Dickinson FACSCalibur flow cytometer. Data analysis was performed with Becton Dickinson Cell Quest software version 3.3 and the geometric mean fluorescence intensity ratio (GMR) was determined for each cell type.

XF-498 = assay: Flow cytometry (FACS) of CR011 surface staining; type: binding, human
Description: as §1

SF-268 = assay: Flow cytometry (FACS) of CR011 surface staining; type: binding, human
Description: as §1

SF-539 = assay: Flow cytometry (FACS) of CR011 surface staining; type: binding, human
Description: as §1

SK-Mel-2 cells = assay: Cell cycle analysis (BrdU / propidium iodide flow cytometry); type: cell-based, human; details: SK-Mel-2, 24 hour, 1000 ng/mL
Description: (§2) Briefly, cells were pulsed at the indicated times with 30 μM of bromodeoxyuridine (BrdU, Sigma) for 30 min, harvested, fixed and permeabilized in methanol. Nascent DNA synthesis was detected by anti-bromodeoxyuridine-FITC (BD Biosciences, San Jose, Calif.) staining. Total DNA content was detected using propidium iodide (PI, Sigma). For apoptosis analysis, cells were treated as above and labeled with Annexin V-FITC followed by propidium iodide exclusion using the Annexin V-FITC Apoptosis Detection kit I (BD PharMingen, San Diego, Calif.) according to the manufacturer's protocols. Flow cytometry (as described in the previous Example) was used to assay both cell cycle and apoptosis studies.
(§3) DNA synthesis and cell cycle progression were determined by flow cytometry (Table 52).

TK-10 cells = assay: as above; type: cell-based, human; details: TK-10, 24 hour, 1000 ng/mL
Description: as §2, §3

GPNMB = target: T1, GPNMB (Homo sapiens, UniProt Q14956); assay: BiaCore 2000 biosensor binding of hybridoma supernatant mAb to GPNMB
T1 construct: made in house; host or cells: HEK 293
T1 sequence (Q14956 23-492): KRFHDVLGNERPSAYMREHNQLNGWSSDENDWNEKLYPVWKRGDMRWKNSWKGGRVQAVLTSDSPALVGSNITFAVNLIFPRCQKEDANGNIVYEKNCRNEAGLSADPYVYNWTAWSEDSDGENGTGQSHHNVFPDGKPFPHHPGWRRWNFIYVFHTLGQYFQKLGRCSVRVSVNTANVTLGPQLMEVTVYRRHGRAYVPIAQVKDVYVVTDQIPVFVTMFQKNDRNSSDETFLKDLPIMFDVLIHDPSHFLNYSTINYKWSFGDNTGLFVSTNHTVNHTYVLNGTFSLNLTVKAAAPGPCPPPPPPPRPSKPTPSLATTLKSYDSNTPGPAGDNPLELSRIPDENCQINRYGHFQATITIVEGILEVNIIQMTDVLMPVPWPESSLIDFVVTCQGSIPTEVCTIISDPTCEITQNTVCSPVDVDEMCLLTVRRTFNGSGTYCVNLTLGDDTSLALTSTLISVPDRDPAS
Description: Certain Hybridoma cell supernatants (29) were analyzed for binding to GPNMB by BiaCore® 2000 biosensor equipped with a research-grade CMS sensor chip. A 1:25 dilution of cell supernatant was passed over a protein A surface for 5 min followed by washing the surface for 10 mins. Subsequently, GPNMB was injected for 90 sec. over the surface at a concentration of 880 nM followed by dissociation. Double-referenced binding data were obtained by subtracting the signal from a control flow cell and subtracting the baseline drift of a buffer injected just prior to the antigen injection. GPNMB binding ddata for each mAb was normalized for the amount of mAb captured on each surface. Normalized, drift corrected responses were also measured. The sensorgrams were fit to a simple 1:1 kinetic model.

CG56972-expressing cells = assay: Internalization of cell surface bound antibodies (flow cytometry); type: cell-based; details: incubation with CG56972-expressing cells
Description: Internalization of cell surface bound antibodies was assessed by a modified flow cytometry procedure. […] After washing cells, incubation was shifted to 37° C. for 1 hr to allow internalization of bound antibodies. Cells that remained on ice (total surface bound) or that were incubated at 37° C. […] Labeled cells were analyzed by flow cytometry as described above. The percentage of antibody internalized was determined using the GMRs and the following formula: Percent internalized=Total surface bound (4° C.)−Total surface bound (37° C.)/Total surface bound (4° C.)×100

[2] = mAb captured on protein A, GPNMB 880 nM, 1:1 kinetic model

B1: Mab1.15.1 (protein, listed as Homo sapiens)
chain: QVQLQESGPGLVKPSQTLSLTCTVSGGSISSFNYYWSWIRHHPGKGLEWIGYIYYSGSTYSNPSLKSRVTISVDTSKNQFSLTLSSVTAADTAVYYCARGYNWNYFDYWGQGTLVTVSSA
- tumor response ([1]; listed as CR011 antibody alone): lack of tumor growth inhibition
- tumor response ([1]; listed as unconjugated CR011): lack of responses
- surface staining above isotype control mAb background (U-118-MG): at least 1.5 fold
- surface staining above isotype control mAb background (XF-498): at least 1.5 fold
- surface staining above control mAb background (SF-268): around 1.5 fold
- surface staining above isotype control mAb background (SF-539): at least 1.5 fold
- % G1 (SK-Mel-2 cells): 63.6%
- % G2/M (SK-Mel-2 cells): 6.4%
- % S-phase (SK-Mel-2 cells): 25.2%
- % Sub-G1 (SK-Mel-2 cells): 0.5%
- % G1 (TK-10 cells): 42.0%
- % G2/M (TK-10 cells): 6.3%
- % S-phase (TK-10 cells): 39.8%
- % Sub-G1 (TK-10 cells): 0.3%
- binding to GPNMB (GPNMB; 1:25 dilution of cell supernatant): strong binding
- Kd (GPNMB; [2]): 0.052 µM
- ka (GPNMB; [2]): 16524 M⁻¹ s⁻¹
- kd (GPNMB; [2]): 0.000855 s⁻¹
- internalization (CG56972-expressing cells): internalized
